Assay results from patent US20210395381A1 (OSSIANIX, published 2021).
Numbering of substitutions follows the chain as printed.

B1: Clone 28 (VNAR)
VNAR: ARVDQTPQTITKETGESLTINCVLRDSICALSSTHWYRKKSGSTNEESISKGGRYVETVNSGSKSFSLRINDLTVEDSGTYRCNVRTAQGTLCGDVSDVYGDGTAVTVNA
notes: VNAR on phage
B2: Clone 4 (VNAR)
VNAR: ARVDQTPQTITKETGESLTINCVLRDSNCALPSTYWYRKKSGSTNEESISKGGRYVETVNSGSKSFSLRINDLTVKDSGTYRCKVMSQEVRWQMTCKIVVMDVYGGGTVVTVNA
notes: VNAR on phage
B3: Clone 17 (VNAR)
VNAR: ARVDQTPQTITKETGESLTINCVLRDSNCALSNLYWYRKKSGSTNEESISLGGRYVETVNSGSKSFSLRINDITVEDSGRYRCNVYNFFTYQCRWFQSDVYGDGTAVTVNA
notes: VNAR on phage
B4: Clone 7 (VNAR)
VNAR: ARVDQTPQTITKETGESLTINCVLRDNNCALSSTLWYRTKSGSRNEESISKGGRYVETVNSGSKSFSLRINDLTVEDSGTYRCNVQSWPPGNGWWCDVYGDGTAVTVNA
notes: VNAR on phage
B5: Clone 2 (VNAR)
VNAR: ARVDQTPQTITKETGESLTINCVLRDSNCELSSTYWYRKKSDSTNEASISKGGRYVETVNSGSKSFSLKINDLTVEDSGTYRCNVFTSDSYDLGDVYGGGTVVTVNA
notes: VNAR on phage
B6: Clone 19 (VNAR)
VNAR: ARVDQTPQTITKETGESLTINCVLRDSNCALSSTYWYRKKSGSTNEESISKGGRYVETVNSGSKSFSLRINDLTVEDSGTYRCNVGQAQRLRSNVDDVYGGGTVVTVNA
notes: VNAR on phage
B7: Clone 27 (VNAR)
VNAR: ARVDQTPRSVTKETGESLTINCVLRDASYALGSTCWYRKKSGSTNEESISKGGRYVETVNSGSKSFSLRINDLTVEDSGTYRCNVSRIGQYLCQARSDVYGDGTAVTVNA
notes: VNAR on phage
B8: Clone 29 (VNAR)
VNAR: ARVDQTPQTITKETGESLTINCVLRDSNCALSSTLWYRTKSGSRNEESISKGGRYVETVNSGSKSFSLRINDLTVEDSGTYRCNVQQGCESYNWMVDVYGGGTAVTVNA
notes: VNAR on phage
B9: Clone 31 (VNAR)
VNAR: ARVDQTPQTITKETGESLTINCVLRDSNCALSSTYWYRKKSDSTNEENISKGGRYVETVNSGSKSFSLKINDLTVEDSGTYRCNVQPLFCDLWLDVYGGGTVVTVNA
notes: VNAR on phage
B10: Clone 20 (VNAR)
VNAR: ARVDQTPRSVTKETGESLTINCVLRDSNCALPSTYWYRKKSGSTNEESISKGGRYVETVNSGSKSFSLRINDLTVKDSGTYRCNVKWDCRYQCICVSADVYGDGTAVTVNA
notes: VNAR on phage
B11: Clone 18 (VNAR)
VNAR: ARVDQTPQTITKETGESLTINCVLRDSNCALSSTYWYRKKSDSTNEESISKGGRYVETVNSGSKSFSLRINDLTVEDSGTYRCKVCTGMSCPCLGRRQTDVYGGGTAVTVNA
notes: VNAR on phage
B12: Clone 3 (VNAR)
VNAR: ARVDQTPQTITKETGESLTINCVLRDSNCALPSTYWYRKKSGSTNEESISKGGRYVETVNSGSKSFSLRINDLTVKDSGTYRCNVVQEPYSCKGRDDVYGGGTAVTVNA
notes: VNAR on phage
B13: Clone 5 (VNAR)
VNAR: ARVDQTPQTITKETGESLTINCVLRDSNCALSSTLWYRTKSGSRNEESISKGGRYVETVNSGSKSFSLRINDLTVKDSGTYRCNVQQYDCIASFDVYGDGTAVTVNA
notes: VNAR on phage
B14: Clone 6 (VNAR)
VNAR: B13 VNAR with I10V, K76E, Q86C, Q87S, Y88N, D89Y, I91P, A92I, S93K, F94D
notes: VNAR on phage
B15: Clone 24 (VNAR)
VNAR: ARVDQTPQTITKETGESLTINCVLRDSNCALPSTYWYRKKSGSTNEESISKGGRYVETVNSGSKSFSLRINDLTVKDSGTYRCKVGPRCMGPNWQSYSCDVYGGGTVVTVNA
notes: VNAR on phage
B16: Clone 30 (VNAR)
VNAR: ARVDQTPQTITKETGESLTINCVLRDSNCALSSTLWYRTKSGSRNEESISKGGRYVETVNSGSKSFSLKINDLTVEDSGTYRCNVWFADYYWFQYDVYGGGTAVTVNA
notes: VNAR on phage
B17: Clone 9 (VNAR)
VNAR: ARVDQTPQTITKETGESLTINCVLRDSNCALPSTWYRKKSDSTNEESISKGGRYVETVNSGSKSFSLRINDLTVKDSGTYRCKVLYPNCYRCMWGQVTDVYGGGTAVTVNA
notes: VNAR on phage
B18: Clone 23 (VNAR)
VNAR: ARVDQTPQTVTKETGESLTINCVLRDSNCDLSRTYWYRKKSGSTNEESISKGGRYVETVNSGSKSFSLRINDLTVEDSGTYRCNVGGDLCGDQRDVYGGGTAVTVNA
notes: VNAR on phage
B19: Clone 25 (VNAR)
VNAR: ARVDQTPRSVTKETGESLTINCVLRDSICALSSTYWYRKKSGSTNEESISKGGRYVETVNSGSKSFSLKINDLTVEDSGTYRCNVFTEMRGRCWAWGVDVYGDGTAVTVNA
notes: VNAR on phage
B20: Clone 8.149 (VNAR)
VNAR: ARVDQTPQTITKETGESLTINCVLRDSNCALPSTYWYRKKSGSTNEESISKGGRYVETVNSGSKSFSLRINDLTVEDSGTYRCKVIAQLSSILRGCNYHPHDVYGDGTAVTVNA
B21: Clone 8.154 (VNAR)
VNAR: B20 VNAR with N97G, Y98G, H99S, P100K
B22: Clone 8.159 (VNAR)
VNAR: B20 VNAR with I92D, L93G, R94Q, H99R, P100K
B23: Clone 8.156 (VNAR)
VNAR: B20 VNAR with I92Q, L93S, R94V, H99R, P100K
B24: Clone 8.150 (VNAR)
VNAR: B20 VNAR with H99N, P100Q, H101Q
B25: Clone 8.155 (VNAR)
VNAR: B20 VNAR with H99K, P100I, H101A
B26: Clone 8.157 (VNAR)
VNAR: B20 VNAR with Q88Y, L89R, S90K, L93V, H99R, P100K
B27: Clone 8.152 (VNAR)
VNAR: B20 VNAR with I86M, A87D, S91N, I92M, H99R, P100K
B28: Clone 8.158 (VNAR)
VNAR: B20 VNAR with S90N, S91V, H99R, P100K
B29: Clone 8.151 (VNAR)
VNAR: B20 VNAR with I92L, L93E, H99F, P100Q, H101F
B30: Clone 8.153 (VNAR)
VNAR: B20 VNAR with S90A, S91F, I92G, H99R, P100K
B31: Clone 22 (VNAR)
VNAR: ARVDQTPQTITKETGESLTINCVLRDSNCALSNLYWYRKKSGSTNEESISLGGRYVETVNSGSKSFSLRINDLTVEDSGTYRCNVQQQSSGTFYDVYGGGTAVTVNA
notes: VNAR on phage
B32: Clone 26 (VNAR)
VNAR: ARVDQTPQTITKETGESLTINCVLRDSNCALSSTLWYRTKSGSRNEESISKGGRYVETVNSGSKSFSLKINDLTVEDSGTYRCNVCMGVTCNHVPDVYGGGTVVTVNA
notes: VNAR on phage
B33: Clone 21 (VNAR)
VNAR: ARVDQTPRVTKETGESLTINCVLRDNNCALSTTYWYRKKSGSTNEENISKGGRYVETVNSGSKSFSLRINDLTVEDSGTYRCNVYMTACSNDMDVYGGGTVVTVNA
notes: VNAR on phage

How the values were obtained:
recombinant human TfR-1 [1] = biological target: T1, recombinant human TfR-1 (human, UniProt P02786 89-760); experiment: phage ELISA
T1 construct: extracellular domain; also called hTfR1; human transferrin receptor-1
Protocol: (§1) After the third round of selection, instead of pooling bacterial colonies, individual phagemid clones were grown in 1 ml of 2TY medium containing glucose and ampicillin in 96-well blocks and used to rescue the phages. After an overnight culturing, bacteria were spun down and an aliquot of the phage supernatant was sent for Sanger sequencing (Genewiz); VNAR CDR3 sequences were identified using BioEdit (a sequence alignment editor). Another aliquot was blocked with 2.5% milk for phage ELISAs. High-binding ELISA plates (Greiner) were coated with 1 μg/ml of recombinant human or mouse TfR-1. The plates were then blocked with 2.5% milk in PBST. Blocked phages were added to the blocked plates and the VNAR-phage clones binding to the antigens were detected with HRP-labelled anti-M13 coat protein antibodies (Sino Biological), and chromogenic TMB substrate (KLM)
T1 sequence (P02786 89-760): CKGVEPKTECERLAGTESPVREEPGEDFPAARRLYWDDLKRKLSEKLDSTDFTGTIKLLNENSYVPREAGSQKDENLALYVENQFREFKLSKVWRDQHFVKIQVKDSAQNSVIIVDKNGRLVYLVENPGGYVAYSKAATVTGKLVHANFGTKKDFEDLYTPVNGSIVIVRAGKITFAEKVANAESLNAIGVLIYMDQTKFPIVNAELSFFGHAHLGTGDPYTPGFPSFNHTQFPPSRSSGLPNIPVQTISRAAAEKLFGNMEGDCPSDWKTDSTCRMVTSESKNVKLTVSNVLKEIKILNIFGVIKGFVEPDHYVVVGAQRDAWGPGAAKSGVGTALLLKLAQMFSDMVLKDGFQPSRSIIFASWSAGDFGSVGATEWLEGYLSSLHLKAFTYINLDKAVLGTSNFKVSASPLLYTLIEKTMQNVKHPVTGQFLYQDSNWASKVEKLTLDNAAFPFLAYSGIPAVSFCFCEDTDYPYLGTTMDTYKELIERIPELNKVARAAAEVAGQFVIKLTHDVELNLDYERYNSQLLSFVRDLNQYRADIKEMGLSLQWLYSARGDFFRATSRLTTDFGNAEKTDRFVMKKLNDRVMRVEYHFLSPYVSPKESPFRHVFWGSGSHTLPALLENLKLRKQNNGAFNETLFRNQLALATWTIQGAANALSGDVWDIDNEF

recombinant mouse TfR-1 [2] = biological target: T2, recombinant mouse TfR-1 (mouse, UniProt Q62351 89-763); experiment: phage ELISA
T2 construct: Bought recombinant protein; also called mTfR1
Protocol: as §1
T2 sequence (Q62351 89-763 limits assumed): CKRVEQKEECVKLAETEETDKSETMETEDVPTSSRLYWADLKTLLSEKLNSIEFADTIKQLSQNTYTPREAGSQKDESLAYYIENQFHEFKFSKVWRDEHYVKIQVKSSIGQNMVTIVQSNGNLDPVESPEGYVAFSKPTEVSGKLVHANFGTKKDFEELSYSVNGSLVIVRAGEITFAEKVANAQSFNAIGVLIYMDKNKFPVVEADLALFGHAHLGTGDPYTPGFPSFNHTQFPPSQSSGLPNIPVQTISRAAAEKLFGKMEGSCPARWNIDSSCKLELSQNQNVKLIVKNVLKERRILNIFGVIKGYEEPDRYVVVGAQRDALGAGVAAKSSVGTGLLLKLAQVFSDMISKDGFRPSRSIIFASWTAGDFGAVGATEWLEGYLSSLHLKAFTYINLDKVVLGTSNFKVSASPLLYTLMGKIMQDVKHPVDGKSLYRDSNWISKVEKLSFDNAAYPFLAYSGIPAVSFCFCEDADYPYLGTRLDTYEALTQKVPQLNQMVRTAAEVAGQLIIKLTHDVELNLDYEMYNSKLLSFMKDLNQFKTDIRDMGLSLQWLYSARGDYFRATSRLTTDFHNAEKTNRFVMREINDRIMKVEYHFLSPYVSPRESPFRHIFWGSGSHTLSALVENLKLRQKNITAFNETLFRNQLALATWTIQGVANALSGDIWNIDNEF

recombinant human TfR-1 [3] = biological target: T3, recombinant human TfR-1 (human, UniProt P02786 89-760); experiment: phage ELISA, VNAR-phage on plate-coated recombinant human TfR-1
T3 construct: also called hTfR1; human transferrin receptor-1
T3 sequence (P02786 89-760 limits assumed): as the sequence (P02786 89-760) above

recombinant mouse TfR-1 [4] = biological target: T4, recombinant mouse TfR-1 (mouse, UniProt Q62351 89-763); experiment: phage ELISA, VNAR-phage on plate-coated recombinant mouse TfR-1
T4 construct: Coated at 1 ug/ml for the phage ELISA; also called mTfR1; mouse transferrin receptor-1
T4 sequence (Q62351 89-763 limits assumed): as the sequence (Q62351 89-763 limits assumed) above

| Binder | binding result (recombinant human TfR-1 [1]) | binding result (recombinant mouse TfR-1 [2]) | phage ELISA A450 (recombinant human TfR-1 [3]) [A450] | phage ELISA A450 (recombinant mouse TfR-1 [4]) [A450] |
| --- | --- | --- | --- | --- |
| B1 | binds | binds |  |  |
| B2 | binds | binds |  |  |
| B3 | binds | binds |  |  |
| B4 | binds | binds |  |  |
| B5 | binds | binds |  |  |
| B6 | binds | binds |  |  |
| B7 | binds | binds |  |  |
| B8 | binds | binds |  |  |
| B9 | binds | binds |  |  |
| B10 | binds | binds |  |  |
| B11 | binds | binds |  |  |
| B12 | binds | binds |  |  |
| B13 | binds | binds |  |  |
| B14 | binds | binds |  |  |
| B15 | binds | binds |  |  |
| B16 | binds | binds |  |  |
| B17 | binds | binds |  |  |

| Binder | binding result (recombinant human TfR-1 [1]) | binding result (recombinant mouse TfR-1 [2]) | phage ELISA A450 (recombinant human TfR-1 [3]) [A450] | phage ELISA A450 (recombinant mouse TfR-1 [4]) [A450] |
| --- | --- | --- | --- | --- |
| B18 | binds | binds |  |  |
| B19 | binds | binds |  |  |
| B20 |  |  | 0.052 | 0.045 |
| B21 |  |  | 0.055 | 0.044 |
| B22 |  |  | 0.057 | 0.043 |
| B23 |  |  | 0.062 | 0.044 |
| B24 |  |  | 0.058 | 0.045 |
| B25 |  |  | 0.053 | 0.044 |
| B26 |  |  | 0.048 | 0.044 |
| B27 |  |  | 0.059 | 0.045 |
| B28 |  |  | 0.046 | 0.043 |
| B29 |  |  | 0.048 | 0.045 |
| B30 |  |  | 0.048 | 0.044 |
| B31 | binds | binds |  |  |
| B32 | binds | binds |  |  |
| B33 | binds | binds |  |  |
